The values that follow come from paper PMC12001115, “Double prenylation of budding yeast Ykt6 regulates cell wall integrity and autophagy” (The Journal of Biological Chemistry, 2025).

The target in this experiment is T1, Ecm9 (recombinant, subunit of yeast GGT3) (budding yeast (S. cerevisiae), UniProt Q02202 1-377).
T1 construct: Ecm9, budding yeast; no tag is named for this chain; also called recombinant yeast GGT3 α subunit
T1 sequence (looked up): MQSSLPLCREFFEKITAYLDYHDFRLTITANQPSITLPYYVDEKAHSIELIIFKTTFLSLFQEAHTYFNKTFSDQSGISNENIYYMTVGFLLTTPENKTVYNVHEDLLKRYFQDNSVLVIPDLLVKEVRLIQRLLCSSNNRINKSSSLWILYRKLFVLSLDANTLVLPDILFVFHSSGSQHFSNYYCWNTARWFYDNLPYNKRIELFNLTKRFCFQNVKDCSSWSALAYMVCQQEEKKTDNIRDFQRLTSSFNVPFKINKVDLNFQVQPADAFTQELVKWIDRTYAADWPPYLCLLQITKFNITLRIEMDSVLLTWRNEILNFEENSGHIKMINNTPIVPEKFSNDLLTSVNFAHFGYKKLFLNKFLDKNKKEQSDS
The experiment is described as follows: SEC; Ecm9 and GST-Bet2 co-expressed in ExpiSf cells and co-purified (glutathione Sepharose, GST cleaved, MonoQ), then Superdex 200 Increase gel filtration in buffer A (50 mM HEPES-KOH pH 7.4, 50 mM NaCl, 5 mM MgCl2, 1 mM DTT); SDS-PAGE with Coomassie staining. The following applies: both partners purified. (SEC sorts molecules by how far they enter the pores of the column.)

B1: Bet2 (recombinant, subunit of yeast GGT3) (natural protein, budding yeast (S. cerevisiae), UniProt P20133 1-325, looked up)
chain: MSGSLTLLKEKHIRYIESLDTKKHNFEYWLTEHLRLNGIYWGLTALCVLDSPETFVKEEVISFVLSCWDDKYGAFAPFPRHDAHLLTTLSAVQILATYDALDVLGKDRKVRLISFIRGNQLEDGSFQGDRFGEVDTRFVYTALSALSILGELTSEVVDPAVDFVLKCYNFDGGFGLCPNAESHAAQAFTCLGALAIANKLDMLSDDQLEEIGWWLCERQLPEGGLNGRPSKLPDVCYSWWVLSSLAIIGRLDWINYEKLTEFILKCQDEKKGGISDRPENEVDVFHTVFGVAGLSLMGYDNLVPIDPIYCMPKSVTSKFKKYPYK
notes: Bet2, budding yeast; also called GST-BET2; recombinant yeast GGT3 β subunit; not shown: GST, N-terminal, cleaved
As to B1, the binding result was “binds”.
